We go through 78 sequences from the supplement of paper PMC10126150.

± gives the standard deviation of the averaged measurements.
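Also: ATP exposure 15 min at 22 °C before imaging.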

In this data set the test system is ATP. The experiment in a line: switch fluorescence ratio, 500 uM ATP over buffer (Cy3 cluster intensity, sum of 5 cycles each) (fold (ratio)); higher = stronger signal-on switching upon ATP binding; sequences stand for … in TCGTCGGCAGCGTCAGATGTGTATAAGAGACAGTTTTTTTTTTTTTTTTTTTTTTTTT…TC. As to conditions: aptamer strand: ATP DNA aptamer (quencher-CACCTGGGGGAGTATTGCGGAGGAAGG + anchor), 100 nM annealed; ATP concentration: 500 uM. Summed up:
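Cy3-labelled switching-strand clusters on a modified Illumina MiSeq flow-cell were annealed to 100 nM quencher-labelled ATP aptamer, imaged in selection buffer, then imaged after 15 min with 500 uM ATP at 22 °C. Five buffer/ATP cycles ran, with NaOH stripping and re-annealing between them. The fluorescence ratio is summed target-cycle over summed buffer-cycle Cy3 intensity per cluster, averaged per switch-domain sequence. Clusters outside 100-1000 RFU were excluded.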
For the sequence ACGATCAGCG, the switch fluorescence ratio turned out to be 1.022 ± 0.0037.

With TTAATCCCCC, the switch fluorescence ratio was 1.04 ± 0.042.

Take TAAGTTTTCA: the switch fluorescence ratio stood at 1.02 ± 0.023.

For the sequence CAAGGTAAGT, the switch fluorescence ratio came out at 1.03 ± 0.056.

Regarding TTTTAAGGGA, the switch fluorescence ratio was found to be 0.998 ± 0.014.

Take ATTAAAAGA: the switch fluorescence ratio stood at 1.01 ± 0.023.

Turning to GCCGTATGG, the switch fluorescence ratio was 0.997 ± 0.012.

For the sequence AAAAGGTTTT, the switch fluorescence ratio amounted to 1 ± 0.033.

As to AGGCAATTTG, the switch fluorescence ratio was found to be 1 ± 0.071.

On to TTCAATGGTG, for which the switch fluorescence ratio amounted to 1.023 ± 0.0014.

As to GAGATTGAGG, the switch fluorescence ratio was 1.02 ± 0.038.

In the case of TAGTTGACCG, the switch fluorescence ratio was 1.12 ± 0.11.

On to GCTAAAATTT, for which the switch fluorescence ratio was determined as 1 ± 0.029.

TTTCGGAGAA: the switch fluorescence ratio came out at 0.962 ± 0.028.

Consider TCAGGATTGT, for which the switch fluorescence ratio was found to be 0.967 ± 0.031.

Consider TGAAAGCCAC, for which the switch fluorescence ratio is 1.1 ± 0.024.

For the sequence TGCATTCATG, the switch fluorescence ratio was found to be 0.996 ± 0.029.

Turning to AAAAATTAAA, the switch fluorescence ratio came to 1.002 ± 0.0018.

Turning to ATTATGGACG, the switch fluorescence ratio turned out to be 1.06 ± 0.073.

As for GGATGCATTG, the switch fluorescence ratio came out at 0.972 ± 0.011.

For TTGGCATATG, the switch fluorescence ratio came out at 1.07 ± 0.085.

AACTGGAGGG: the switch fluorescence ratio turned out to be 0.969 ± 0.042.

In the case of TAGCATCTTT, the switch fluorescence ratio turned out to be 0.98 ± 0.067.

In the case of AGGCGATGCG, the switch fluorescence ratio worked out at 0.994 ± 0.097.

Regarding AGTTGCCAGC, the switch fluorescence ratio stood at 0.994 ± 0.01.

GTGGTCGCTG: the switch fluorescence ratio was determined as 0.982 ± 0.019.

For the sequence GCGAAAGTCG, the switch fluorescence ratio stood at 1.018 ± 0.0069.

With AAGGGGTAAT, the switch fluorescence ratio was determined as 0.967 ± 0.045.

Consider GTTACAGGTC, for which the switch fluorescence ratio worked out at 1.006 ± 0.0019.

Turning to CACTTGACGT, the switch fluorescence ratio amounted to 1.21 ± 0.034.

For TATACGGCAT, the switch fluorescence ratio turned out to be 1.119 ± 0.0049.

On to AGTCGGGGGA, for which the switch fluorescence ratio was 1.01 ± 0.023.

GGCAATTCTC: the switch fluorescence ratio amounted to 3.9 ± 0.31.

For the sequence GGCGTAAAAG, the switch fluorescence ratio stood at 1.01 ± 0.038.

As to GCAGTTTGGT, the switch fluorescence ratio was 0.9978 ± 0.0039.

With TGTGTTTGGT, the switch fluorescence ratio stood at 0.979 ± 0.021.

Regarding CCCGGGGGCT, the switch fluorescence ratio turned out to be 1.41 ± 0.032.

On to GGTTAAATTT, for which the switch fluorescence ratio turned out to be 0.987 ± 0.021.

In the case of ATATGGTGTA, the switch fluorescence ratio worked out at 0.959 ± 0.021.

As to ATATGTTGTC, the switch fluorescence ratio came out at 0.894 ± 0.11.

Regarding TGTTCGGGTT, the switch fluorescence ratio turned out to be 0.99 ± 0.015.

Consider TTGATCCGAC, for which the switch fluorescence ratio stood at 1.35 ± 0.25.

On to GATGTAAAGG, for which the switch fluorescence ratio came to 0.9891 ± 0.006.

With CTCCGAATTT, the switch fluorescence ratio was found to be 2.17 ± 0.35.

For AATGTTTTCT, the switch fluorescence ratio stood at 1.05 ± 0.057.

For ACCTTTTAAG, the switch fluorescence ratio was 1.23 ± 0.3.

CCTAAGTGTT: the switch fluorescence ratio is 1.06 ± 0.069.

With CGTATCCCGT, the switch fluorescence ratio was 0.974 ± 0.014.

As for CGGTAGGTGC, the switch fluorescence ratio turned out to be 0.976 ± 0.063.

CGGGGTGAAC: the switch fluorescence ratio is 0.994 ± 0.038.

Take TTCGACATGT: the switch fluorescence ratio is 1.025 ± 0.0042.

Consider TTGTTTAGGT, for which the switch fluorescence ratio was found to be 1 ± 0.03.

In the case of GATGGGTG, the switch fluorescence ratio amounted to 1.03 ± 0.082.

Regarding TCAGTTTTTC, the switch fluorescence ratio turned out to be 1.013 ± 0.0022.

Take ATTAAGGTCG: the switch fluorescence ratio worked out at 1.07 ± 0.023.

In the case of GGGCCTGGTA, the switch fluorescence ratio came out at 0.973 ± 0.03.

Consider GCGGCGGCGT, for which the switch fluorescence ratio turned out to be 1.002 ± 0.0023.

Consider TGGTTTTTTT, for which the switch fluorescence ratio was 0.992 ± 0.018.

As to TTATTATTCA, the switch fluorescence ratio came to 1.008 ± 0.0047.

GCTGCGACCA: the switch fluorescence ratio stood at 1.131 ± 0.0024.

For the sequence GTCAGGGTTG, the switch fluorescence ratio was found to be 1 ± 0.048.

Consider TACGGGGTTT, for which the switch fluorescence ratio turned out to be 0.996 ± 0.051.

As for GAGATGAAAC, the switch fluorescence ratio amounted to 0.976 ± 0.011.

Turning to GGGATGCCCT, the switch fluorescence ratio came to 1.01 ± 0.027.

Regarding GGTTCTTAGT, the switch fluorescence ratio amounted to 0.978 ± 0.05.

Consider CGGTATTCTG, for which the switch fluorescence ratio came to 1.01 ± 0.052.

Consider TCGGGTTCGG, for which the switch fluorescence ratio was 0.992 ± 0.032.

For TTTTGACGGA, the switch fluorescence ratio was found to be 0.994 ± 0.027.

Turning to TGGTGGGATC, the switch fluorescence ratio stood at 1.03 ± 0.025.

Take GGGGATTAGT: the switch fluorescence ratio came to 0.997 ± 0.043.

On to AGACGGACGT, for which the switch fluorescence ratio turned out to be 1.05 ± 0.013.

As to TCCGGGGGTA, the switch fluorescence ratio came to 1.12 ± 0.12.

On to AAAGATTGTT, for which the switch fluorescence ratio was 0.954 ± 0.011.

Take AGTGCAGGGA: the switch fluorescence ratio stood at 0.9894 ± 0.0077.

Consider AGTCCTGGCG, for which the switch fluorescence ratio is 1.07 ± 0.023.

As for CGGTTATTTA, the switch fluorescence ratio stood at 1.04 ± 0.011.

For GGTTTTGTCA, the switch fluorescence ratio amounted to 1.01 ± 0.019.

On to GGGGCCGTTT, for which the switch fluorescence ratio came to 0.973 ± 0.03.
